Data set [1] addresses T1, EnvC_(35-420) (E. coli K-12, UniProt P37690 35-419).
T1 construct: Only part of the coiled-coil domain is modelled in the cryo-EM structure; also called ecEnvC; source: E. coli C43(DE3), purified (Ni-NTA, SEC, TEV, Ni-NTA, SEC); not shown: His8, N-terminal, cleaved; SUMO, N-terminal, cleaved; Strep tag II, C-terminal, kept
T1 sequence (looked up): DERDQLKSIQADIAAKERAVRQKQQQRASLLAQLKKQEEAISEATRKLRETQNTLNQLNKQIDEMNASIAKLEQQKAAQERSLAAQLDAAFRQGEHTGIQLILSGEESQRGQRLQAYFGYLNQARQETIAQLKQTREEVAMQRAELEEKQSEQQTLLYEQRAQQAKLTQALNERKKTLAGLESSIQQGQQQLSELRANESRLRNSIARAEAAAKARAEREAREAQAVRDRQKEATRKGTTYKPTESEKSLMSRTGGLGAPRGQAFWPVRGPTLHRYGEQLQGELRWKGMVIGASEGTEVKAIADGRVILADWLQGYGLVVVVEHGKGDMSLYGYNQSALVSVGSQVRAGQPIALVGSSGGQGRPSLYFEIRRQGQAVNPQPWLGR
Put plainly: pull-down + SEC; purified FtsE^E163QX or FtsX incubated with EnvC(35-420)-Strep at a molar ratio of 1:1.5, moved into PMAL-C8; Strep column to remove unbound FtsEX or FtsX, then Superdex 200 in 20 mM Tris pH 8.0, 300 mM NaCl (1 mM ATP for FtsE^E163QX); peak validated by SDS-PAGE. As to conditions: both partners purified.

Data set [2] concerns the molecule itself. In words: cryo-EM structure; ATP-bound FtsE^E163QX^Δ4-18-EnvC(35-420) reconstituted in PMAL-C8, about 1 mg/ml, 3.11 Å.
Data set [3] addresses T1, EnvC_(35-420). The data set is described as above. As to conditions: both partners purified.

B1: FtsX (purified alone) (natural protein, E. coli K-12, UniProt P0AC30 1-352, looked up)
chain: MNKRDAINHIRQFGGRLDRFRKSVGGSGDGGRNAPKRAKSSPKPVNRKTNVFNEQVRYAFHGALQDLKSKPFATFLTVMVIAISLTLPSVCYMVYKNVNQAATQYYPSPQITVYLQKTLDDDAAAGVVAQLQAEQGVEKVNYLSREDALGEFRNWSGFGGALDMLEENPLPAVAVVIPKLDFQGTESLNTLRDRITQINGIDEVRMDDSWFARLAALTGLVGRVSAMIGVLMVAAVFLVIGNSVRLSIFARRDSINVQKLIGATDGFILRPFLYGGALLGFSGALLSLILSEILVLRLSSAVAEVAQVFGTKFDINGLSFDECLLLLLVCSMIGWVAAWLATVQHLRHFTPE
notes: FtsX, E. coli K-12; The plasmid section describes pET28a-ftsX (N-terminal 8xHis); the purification section names pSUMO-ftsX (His8-SUMO), tag not removed; Whether SUMO stood on the protein is open; not shown: His8, N-terminal, kept
For B1, the binding result in data set [1] is “binds”.

B2: FtsE^E163Q (natural protein, E. coli K-12, UniProt P0A9R7 1-222, looked up)
chain: MIRFEHVSKAYLGGRQALQGVTFHMQPGEMAFLTGHSGAGKSTLLKLICGIERPSAGKIWFSGHDITRLKNREVPFLRRQIGMIFQDHHLLMDRTVYDNVAIPLIIAGASGDDIRRRVSAALDKVGLLDKAKNFPIQLSGGEQQRVGIARAVVNKPAVLLADQPTGNLDDALSEGILRLFEEFNRVGVTVLMATHDINLISRRSYRMLTLSDGHLHGGVGHE
notes: The pSUMO plasmid adds an N-terminal His8-SUMO-TEV site, removed by TEV; Two copies stand in the FtsEX complex; also called ecFtsE^E163Q; not shown: His8 (chain inferred: first gene of pSUMO-ftsEX), N-terminal, cleaved; SUMO (chain inferred: first gene of pSUMO-ftsEX), N-terminal, cleaved
In the case of B2, in data set [2], the binding result is given as “binds”.

B3: FtsX^Δ4–18 (natural protein, E. coli K-12, UniProt P0AC30 1-352, looked up)
chain: MNKRFRKSVGGSGDGGRNAPKRAKSSPKPVNRKTNVFNEQVRYAFHGALQDLKSKPFATFLTVMVIAISLTLPSVCYMVYKNVNQAATQYYPSPQITVYLQKTLDDDAAAGVVAQLQAEQGVEKVNYLSREDALGEFRNWSGFGGALDMLEENPLPAVAVVIPKLDFQGTESLNTLRDRITQINGIDEVRMDDSWFARLAALTGLVGRVSAMIGVLMVAAVFLVIGNSVRLSIFARRDSINVQKLIGATDGFILRPFLYGGALLGFSGALLSLILSEILVLRLSSAVAEVAQVFGTKFDINGLSFDECLLLLLVCSMIGWVAAWLATVQHLRHFTPE
notes: FtsX, E. coli K-12, with residues 4-18 deleted; The results call the cryo-EM sample FtsE^E163QX; the methods say that the grids held FtsE^E163QX^Δ4-18; also called ecFtsX
On to B3, for which the binding result in data set [3] and in data set [2] was “binds” throughout.

The record behind these values is article PMC11139282, “Structure and activity of the septal peptidoglycan hydrolysis machinery crucial for bacterial cell division” (PLOS Biology, 2024).
